According to patent US8076087B2, “Galectin sequences and compositions and methods utilizing same for treating or diagnosing arthritis and other chronic inflammatory diseases” (Medical Research Fund of Tel Aviv Souraskv Medical Center, priority 2002, dated 2011):

Key:
[1] = test system: synovial fluid cells from RA patients; experiment: Apoptosis induction, annexin V/PI flow cytometry, synovial fluid cells; assay type: cell-based, human; conditions: for total cell population in the apoptotic area: untreated control 19%
Experimental: (§1) The assay was performed by Phosphatidyl Serine Detection Kit (IOP-116F FITC-conjugated, IQ Products, The Netherlands) using the manufacturer instructions. Human fibroblast cells from OA patients, synovial fluid cells and PBLs from RA and other arthritic patients were incubated with increasing concentrations of galectin-8 variants 1 and 2 (50-2000 ng/ml). Specific binding of annexin V was performed by the incubation of cells for 20 minutes on ice in a binding calcium buffer containing a saturating concentration of annexin V-fluorescein isothiocyanate (FITC) and propdium iodide (PI). After incubation, the cells were pelleted, and analyzed in FACS analyzer (Beckton Dickinson, San Jose, Calif.). Annexin V^+/PI^+ cells were defined as necrotic, while annexin V^+/PI^− cells were defined as apoptotic. The percent of the apoptotic cells of the total cells was determined.

IL-1β = IL-1β levels in media of LPS-supplemented human synovial tissue / cell cultures, sandwich enzyme immunoassay; assay type: cell-based; conditions: for decrease of IL-1β levels: synovial tissue culture; for decrease of IL-1β levels / IL-1β levels in media: LPS 3 μg/ml, 48 hours; for IL-1β levels in media: 50-2000 ng/ml
Experimental: (§2) Specimen Selection and Culture Conditions: Synovial tissues were obtained from patients undergoing total knee or hip replacement for osteoarthritis (OA). Within 2 hours of removal, synovial tissues were cut into small pieces, of a few millimeters in diameter. Synovial fibroblasts were cultured in 2 ml RPMI 1640 supplemented with 2 mM L-glutamine, 100 U/ml penicillin and 100 μg/ml streptomycin sulphate (Biological Industries).
(§3) Inflammatory cells and PBLs derived from joints of rheumatoid arthritic (RA) patients were cultured individually [RPMI-1640 (Sigma, Israel)]. The murine fibroblast line, NIH 3T3, was used as a control. The recombinant galectin-8 peptide (r-galectin-8) was added to the culture medium of the synovial fibroblasts at a concentration of 0.125 μM, 0.25 μM, 0.5 μM and 1 μM) together with lipopolysaccharide (LPS, 3 μg/ml). The recombinant galectin-8 peptide variants (r-galectin-8 variant 1 and r-galectin-8 variant 2) were added to all the culture mediums in the following concentrations: 50 ng/ml, 125 ng/ml, 250 ng/ml, 500 ng/ml, 750 ng/ml, 1 μg/ml and 2 μg/ml together with lipopolysaccharide (LPS, 3 μg/ml). Following 48 hours of incubation (37° C., 5% CO2), the measurement of IL-1β, TNF-α and IL-1ra production was performed in supernatants by quantitative sandwich enzyme immunoassay technique (R&D Systems, Inc., USA). Detection limits were 1 pg/ml to 14 pg/ml. IL-1ra production was tested with and without the addition of lipopolysaccharide (LPS, 3 μg/ml) to the culture media.

TNFα = TNFα levels in media of LPS-supplemented human synovial tissue / cell cultures, sandwich enzyme immunoassay; assay type: cell-based; conditions: for decrease of TNFα levels: synovial tissue culture; for decrease of TNFα levels / TNFα levels in media: LPS 3 μg/ml, 48 hours; for TNFα levels in media: 50-2000 ng/ml
Experimental: as §2, §3

IL-1ra = IL-1ra levels in media of LPS-supplemented human synovial tissue / cell cultures, sandwich enzyme immunoassay; assay type: cell-based; conditions: for increase of IL-1ra levels: synovial tissue culture, vs LPS treated control; for increase of IL-1ra levels / IL-1ra levels in media: LPS 3 μg/ml, 48 hours; for IL-1ra levels in media: 50-2000 ng/ml
Experimental: as §2, §3

[2] = test system: collagen induced arthritis (CIA); experiment: Collagen-induced arthritis (CIA) in DBA/1 mice, footpad thickness; assay type: in vivo; conditions: 100 μg per injection, IP / systemic, from disease onset every day for 11 days
Excerpt: Animal treatment: 44 DBA/1 mice were induced with a joint inflammatory disease by two subcutaneous (s.c.) injections into the base of the tail of type II collagen three weeks apart. Joint inflammation, which appears several days after the last collagen injection, causes enhanced marked foot pad swelling, as well as swelling of other joints. The diameter of nonarthritic footpads is 1.5 to 1.7 mm. A footpad diameter of 1.9 to 2.0 mm was arbitrarily set as disease onset. […] Human galectin-8 protein and variants (100 μg per injection) as well as control injections were injected IP at disease onset and then every day for 11 days. The 44 mice were divided into 5 experimental groups as follows: Group 1 (negative control): systemic injection (starting at CIA onset) of PBS or PBS+30% glycerol (storing dilution solution of galectin proteins) (10 mice). Group 2 (positive control): systemic injection (starting at CIA onset) of anti-mouse TNFα mAb (cat. no. AMC-3012, Biosource Int. Inc. USA) adhering to the standard protocol (i.e., 100 μg antibody/mouse every day for 11 days) (6 mice). Group 3 (positive control): systemic injection of human galectin-8 protein according to the standard protocol (10 mice). Group 4: systemic injection of 100 μg per dose of human galectin-8 variant 1 according to the standard protocol (10 mice). Group 5: systemic injection of 100 μg per dose of human galectin-8 variant 2 (8 mice). The effect on footpad thickness was determined in a “blind” fashion, recording the electronic microcaliper measurements of the thickness of the joints, by picking the animals at random and recording their ears' signs following measurement. The mice were bled prior to disease induction, following disease onset and upon termination of the experiment (approximately day 11). The sera were stored and later analyzed for the presence of rheumatoid factor (RF) and cytokines. The mice were killed upon termination of the experiment and the joints removed from some of the animals for histopathological examination.

[3] = test system: synovial fluid cells of arthritic patients; experiment: Flow cytometry of recombinant galectin-8 binding to synovial fluid cells (anti-galectin-8 immunostaining); assay type: cell-based, human; conditions: 1 μM added to synovial fluid cells
Experimental: (§4) Peripheral white blood cells and the total cell population from synovial fluids of arthritic patients were isolated (approximately 10^7 cells) on a Ficoll gradient (Robbins Scientific Corporation, Sunngvale, Calif., USA) and analyzed by flow cytometry using anti-galectin-8 polyclonal antibody (generated in rabbits according to prior art protocols).
(§5) Specific binding of anti-galectin-8 was performed by the incubation of cells for 20 minutes on ice in a binding calcium buffer containing a saturating concentration of anti-galectin-8. Thereafter, a second incubation with a goat-anti-rat conjugated to fluorescein isothiocyanate (FITC) was effected. After incubation, the cells were pelleted, and analyzed in FACS analyzer (Beckton Dickinson, San Jose, Calif.). Following the initial analysis, recombinant galectin-8 (as prepared in Example 1) (1 μM) was added to both the synovial fluid cells and the PBLs to verify that recombinant galectin-8 may be detected by immunostaining with anti-galectin-8 polyclonal antibody.

[4] = test system: PBLs of arthritic patients; experiment: Flow cytometry of recombinant galectin-8 binding to PBLs (anti-galectin-8 immunostaining); assay type: cell-based, human; conditions: 1 μM added to PBLs
Experimental: as §4, §5

[5] = test system: human fibroblasts from OA patients; experiment: Apoptosis induction, annexin V/PI flow cytometry, OA fibroblasts; assay type: cell-based; conditions: for total cell population in the apoptotic area: 24 h, no-addition control 39.5%
Experimental: as §1

[6] = test system: PBLs of arthritic patients; experiment: Apoptosis induction, annexin V/PI flow cytometry, PBLs; assay type: cell-based, human; conditions: lowest concentration 50 ng/ml
Experimental: as §1

[7] = 0.25 μM, 0.5 μM and 1 μM, vs LPS treated control, dose dependent
[8] = 0.125 μM, vs LPS treated control
[9] = 0.25 μM, vs LPS treated control
[10] = human fibroblasts from OA patients

## COc1cccc2c1C(=O)c1c(O)c3c(c(O)c1C2=O)C[C@@](O)(C(=O)CO)C[C@@H]3O[C@H]1C[C@H](N)[C@H](O)[C@H](C)O1 [doxorubicine, reference compound]
[1]; 24 h, 150 μg/ml, positive control
  total cell population in the necrotic area: 80%

B1: galectin-8: recombinant human galectin-8 polypeptide, SEQ ID NO: 4, expressed in E. coli (protein)
chain: MLSLNNLQNIIYNPVIPYVGTIPDQLDPGTLIVICGHVPSDADRFQVDLQNGSSVKPRADVAFHFNPRFKRAGCIVCNTLINEKWGREEITYDTPFKREKSFEIVIMVLKDKFQVAVNGKHTLLYGHRIGPEKIDTLGIYGKVNIHSIGFSFSSDLQSTQASSLELTEISRENVPKSGTPQLSLPFAARLNTPMGPGRTVVVKGEVNANAKSFNVDLLAGKSKDIALHLNPRLNIKAFVRNSFLQESWGEEERNITSFPFSPGMYFEMIIYCDVREFKVAVNGVHSLEYKHRFKELSSIDTLEINGDIHLLEVRSW
IL-1β; [7]
  IL-1β release in the media of human synovial tissue: inhibited
IL-1β; [8]
  decrease of IL-1β levels: approximately 9%
IL-1β; [9]
  decrease of IL-1β levels: ~42%
IL-1β; 0.5 μM, vs LPS treated control
  decrease of IL-1β levels: ~67%
TNFα; [7]
  TNF-α release in the media of human synovial tissue: inhibited
TNFα; [8]
  decrease of TNFα levels: approximately 2%
TNFα; [9]
  decrease of TNFα levels: ~43%
TNFα; 0.5 μM, vs LPS treated control
  decrease of TNFα levels: ~74%
IL-1ra; 0.25 μM, 0.5 μM and 1 μM, vs untreated control, dose dependent
  IL-1ra production in the media of human synovial tissue: increased
IL-1ra; 0.25 μM
  increase of IL-1ra levels: approximately 4 fold
IL-1ra; 0.5 μM
  increase of IL-1ra levels: ~9 fold
IL-1ra; 1 μM
  increase of IL-1ra levels: ~22 fold
[1]; 0.03 μM, 0.1 μM, 0.3 μM and 1 μM, dose dependent, vs serum free medium
  apoptotic effects in human synovial fluid cells: induced apoptotic effects
[1]; 24 h, 0.03 μM
  total cell population in the apoptotic area: 17%
[1]; 24 h, 0.1 μM
  total cell population in the apoptotic area: 20%
[1]; 24 h, 0.3 μM
  total cell population in the apoptotic area: 23%
[1]; 24 h, 1 μM, vs untreated control
  increase in apoptosis development: 3 fold
[1]; 24 h, 1 μM
  total cell population in the apoptotic area: 58%
[2]
  CIA manifestations (footpad swelling): substantially reduced
[3]
  detection of added recombinant galectin-8 on cells by anti-galectin-8 immunostaining: detected
[4]
  detection of added recombinant galectin-8 on cells by anti-galectin-8 immunostaining: detected

B2: galectin-8 variant 2: recombinant galectin-8 variant 2 polypeptide, SEQ ID NO: 8, isoform found in synovial fluid cells of arthritic patients (protein)
chain: MMLSLNNLENIIYNPYIPYVGTIPDQLDPGTLIVICGHVPSDADRFQVDLQNGSSVKPRADVAFHFNPRFKRAGCIVCNTLINEKWGREEITYDTPFKREKSFEIVIMVLKDKFQDLQSTQASSLELTEISRENVPKSGTPQLSLPFAARLNTPMGPGRTVVVKVRSECKCQKMIIYCDVREFKVAVNGVHSLEYKHRFKELSSIDTLEINGDIHLLEVRSW
IL-1β; PBLs from RA patients
  IL-1β levels in media: significantly and dose-dependently inhibited
IL-1β; [10]
  IL-1β levels in media: significantly and dose-dependently inhibited
IL-1β; synovial fluid cells (SFCs)
  IL-1β levels in media: significantly and dose-dependently inhibited
TNFα; PBLs from RA patients
  TNFα levels in media: significantly and dose-dependently inhibited
TNFα; [10]
  TNFα levels in media: significantly and dose-dependently inhibited
TNFα; synovial fluid cells (SFCs)
  TNFα levels in media: significantly and dose-dependently inhibited
IL-1ra; PBLs of RA patients
  IL-1ra levels in media: significantly and dose-dependently increased
IL-1ra; [10]
  IL-1ra levels in media: significantly and dose-dependently increased
IL-1ra; synovial fluid cells (SFCs)
  IL-1ra levels in media: significantly and dose-dependently increased
[1]; inflammatory cells from joints of arthritic patients, lowest concentration 50 ng/ml
  maximal apoptotic effect: approximately 100%
[5]; 125 ng/ml
  total cell population in the apoptotic area: 52.2%
[5]; 250 ng/ml
  total cell population in the apoptotic area: 50.8%
[5]; 500 ng/ml
  total cell population in the apoptotic area: 62%
[5]; 750 ng/ml
  total cell population in the apoptotic area: 59%
[5]; 1000 ng/ml
  total cell population in the apoptotic area: 71.4%
[5]; 2000 ng/ml
  total cell population in the apoptotic area: 77.4%
[5]; increasing concentrations (50-2000 ng/ml)
  percentage of apoptotic cells: gradually increased
[6]
  maximal apoptotic effect: approximately 100%
[2]
  CIA manifestations (footpad swelling): did not influence
